Laboratory results: publication PMC4490372, “Architecture of TFIIIC and its role in RNA polymerase III pre-initiation complex assembly” (Nature Communications, 2015)
Substitutions are numbered along the chain they refer to.

Experiments:
τ131 (123–566) E472K [1] = target: T1, τ131 (123–566) E472K (S. cerevisiae, UniProt P33339 123-566, E472K); experiment: ITC; MicroCal ITC200; 15 μM τ138 in the cell, 150 μM τ131 in the syringe; 20 mM Tris pH 7.5, 150 mM NaCl, 2 mM β-mercaptoethanol; 25 °C; details: both partners purified
T1 construct: source: E. coli, purified by the same method as the wild type; not shown: His6, N-terminal, cleaved
T1 sequence (looked up): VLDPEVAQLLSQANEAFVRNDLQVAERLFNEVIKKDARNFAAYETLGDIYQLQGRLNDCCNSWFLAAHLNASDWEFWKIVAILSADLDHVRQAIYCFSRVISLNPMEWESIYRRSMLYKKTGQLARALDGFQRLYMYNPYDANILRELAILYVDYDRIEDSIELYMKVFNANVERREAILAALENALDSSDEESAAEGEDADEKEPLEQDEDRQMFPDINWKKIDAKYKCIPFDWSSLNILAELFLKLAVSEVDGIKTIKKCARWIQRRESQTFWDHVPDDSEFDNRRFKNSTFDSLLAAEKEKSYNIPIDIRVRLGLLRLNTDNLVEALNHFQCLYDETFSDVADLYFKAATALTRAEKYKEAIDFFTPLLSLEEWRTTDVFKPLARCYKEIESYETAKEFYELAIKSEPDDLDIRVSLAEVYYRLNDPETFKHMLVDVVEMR

τ131 (123–566) E497K [2] = target: T2, τ131 (123–566) E497K (S. cerevisiae, UniProt P33339 123-566, E497K); experiment: as above; details: both partners purified
T2 construct: source: E. coli, purified by the same method as the wild type; not shown: His6, N-terminal, cleaved
T2 sequence (looked up): T1 sequence (looked up) with K350E, E375K

τ131 (123–566) E498K [3] = target: T3, τ131 (123–566) E498K (S. cerevisiae, UniProt P33339 123-566, E498K); experiment: as above; details: both partners purified
T3 construct: source: E. coli, purified by the same method as the wild type; not shown: His6, N-terminal, cleaved
T3 sequence (looked up): T1 sequence (looked up) with K350E, E376K

[4] = target: T4, τ131 (123–566), TPR array, wild type (S. cerevisiae, UniProt P33339 123-566); experiment: as above; details: both partners purified
T4 construct: also called τ131 TPR array; source: E. coli BL21 Star (DE3) pRARE, purified (Ni-NTA, TEV cleavage, S200 SEC); not shown: His6, N-terminal, cleaved
T4 sequence (looked up): T1 sequence (looked up) with K350E

τ131 (123–566) E472K [5] = target: T5, τ131 (123–566) E472K (S. cerevisiae, UniProt P33339 123-566, E472K); experiment: ITC
T5 sequence: T1 sequence (looked up)

τ131 (123–566) E498K [6] = target: T6, τ131 (123–566) E498K (S. cerevisiae, UniProt P33339 123-566, E498K); experiment: ITC
T6 sequence: T1 sequence (looked up) with K350E, E376K

τ131 (123–566) E497K [7] = target: T7, τ131 (123–566) E497K (S. cerevisiae, UniProt P33339 123-566, E497K); experiment: ITC
T7 sequence: T1 sequence (looked up) with K350E, E375K

[8] = target: T8, Bdp1, full-length, recombinant (UniProt P46678 1-594); experiment: pull-down; 15 μg GST-tagged τ131 on Glutathione Sepharose 4B; 300 nM τ138 or Bdp1, or 1 μM Brf1–TBP; 50 mM Tris pH 7.5, 150 mM NaCl, 2 mM DTT, 0.1% Tween20; 4 °C, 4 h; details: both partners purified
T8 construct: Bdp1, subunit of TFIIIB, full-length; also called untagged Bdp1; source: E. coli BL21 Star (DE3) pRARE, purified (Ni-NTA, TEV cleavage, S200 SEC); not shown: His6, N-terminal, cleaved
T8 sequence (looked up): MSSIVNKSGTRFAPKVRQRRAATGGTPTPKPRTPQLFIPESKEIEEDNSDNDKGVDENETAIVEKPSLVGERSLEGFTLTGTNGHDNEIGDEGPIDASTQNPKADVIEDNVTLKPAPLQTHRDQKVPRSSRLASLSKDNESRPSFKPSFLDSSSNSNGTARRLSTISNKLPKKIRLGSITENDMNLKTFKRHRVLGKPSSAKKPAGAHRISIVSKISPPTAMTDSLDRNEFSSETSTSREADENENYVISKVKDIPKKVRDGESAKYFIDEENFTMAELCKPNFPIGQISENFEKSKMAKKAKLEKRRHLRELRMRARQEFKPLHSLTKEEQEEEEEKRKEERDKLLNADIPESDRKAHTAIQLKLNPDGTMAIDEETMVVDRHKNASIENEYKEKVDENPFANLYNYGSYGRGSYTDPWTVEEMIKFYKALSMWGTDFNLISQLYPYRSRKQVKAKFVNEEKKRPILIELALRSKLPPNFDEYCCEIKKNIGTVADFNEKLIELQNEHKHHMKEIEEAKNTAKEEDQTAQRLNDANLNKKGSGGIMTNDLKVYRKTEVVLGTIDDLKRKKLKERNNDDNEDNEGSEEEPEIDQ

B1: τ138 (641–693), τ131-Interaction Region (τIR) (domain or fragment, S. cerevisiae, UniProt P34111 641-693, looked up)
chain: SKKATFTDVIHDTEIYFFDQTEKNRFHRGKKSVERIRKFQNRQKNAKIKASDD
notes: The cloning and tag of this construct as used for ITC and SEC are not described; also called τ138 (τIR); unstructured region of τ138; source: purified; expression of this construct not described
B1: binds (τ131 (123–566) E472K [1]); binds (τ131 (123–566) E497K [2]); binds (τ131 (123–566) E498K [3]). For the same binder, the Kd [4] was ~80 nM, the Kd (τ131 (123–566) E472K [5]) was 833 nM and the Kd (τ131 (123–566) E498K [6]) was 833 nM. For the same binder, the Kd (τ131 (123–566) E497K [7]) was 89 nM.

B2: τ138 construct with residues 682–693 removed (domain or fragment)
chain: SARSLRSLQRQRAILKVMNTIGGVAYLREQFYESVSKYMGSTTTLDKKTVRGDVDLMVESEKLGARTEPVSGRKIIFLPTVGEDAIQRYILKEKDSKKATFTDVIHDTEIYFFDQTEKNRFHRGKKSVERIRKFQN
For B2, the Kd [4] was ~2600 nM.

B3: GST-tagged τ131 (123–566), wild type (domain or fragment, S. cerevisiae, UniProt P33339 123-566, looked up)
chain: T1 sequence (looked up) with K350E
notes: also called GST-τ131; source: E. coli BL21 (DE3) Gold, purified (GST column, S200 SEC)
B3: binds [8].

B4: GST-tagged τ131 (1–580), wild type (domain or fragment, S. cerevisiae, UniProt P33339 1-580, looked up)
chain: MAAGKLKKEQQNQSAERESADTGKVNDEDEEHLYGNIDDYKHLIQDEEYDDEDVPHDLQLSEDEYNSERDSSLLAEFSDYGEISEDDEEDFMNAIREASNFKVKKKKKNDKGKSYGRQRKERVLDPEVAQLLSQANEAFVRNDLQVAERLFNEVIKKDARNFAAYETLGDIYQLQGRLNDCCNSWFLAAHLNASDWEFWKIVAILSADLDHVRQAIYCFSRVISLNPMEWESIYRRSMLYKKTGQLARALDGFQRLYMYNPYDANILRELAILYVDYDRIEDSIELYMKVFNANVERREAILAALENALDSSDEESAAEGEDADEKEPLEQDEDRQMFPDINWKKIDAKYKCIPFDWSSLNILAELFLKLAVSEVDGIKTIKKCARWIQRRESQTFWDHVPDDSEFDNRRFKNSTFDSLLAAEKEKSYNIPIDIRVRLGLLRLNTDNLVEALNHFQCLYDETFSDVADLYFEAATALTRAEKYKEAIDFFTPLLSLEEWRTTDVFKPLARCYKEIESYETAKEFYELAIKSEPDDLDIRVSLAEVYYRLNDPETFKHMLVDVVEMRKHQVDETLHRISNE
notes: τ131 (Tfc4) of S. cerevisiae TFIIIC, residues 1-580 (extended N terminus and TPR array); also called GST-τ131 (1–580); longer τ131 protein; source: E. coli BL21 (DE3) Gold, purified (GST column, S200 SEC)
B4: binds [8].
